Results taken from IntAct's records for PubMed 22158122.

B1: TGF-beta-activated kinase 1 and MAP3K7-binding protein 3 (Homo sapiens), Q8N5C8-1 (parent)
chain: MAQSSPQLDIQVLHDLRQRFPEIPEGVVSQCMLQNNNNLEACCRALSQESSKYLYMEYHSPDDNRMNRNRLLHINLGIHSPSSYHPGDGAQLNGGRTLVHSSSDGHIDPQHAAGKQLICLVQEPHSAPAVVAATPNYNPFFMNEQNRSAATPPSQPPQQPSSMQTGMNPSAMQGPSPPPPPPSYMHIPRYSTNPITVTVSQNLPSGQTVPRALQILPQIPSNLYGSPGSIYIRQTSQSSSGRQTPQSTPWQSSPQGPVPHYSQRPLPVYPHQQNYQPSQYSPKQQQIPQSAYHSPPPSQCPSPFSSPQHQVQPSQLGHIFMPPSPSTTPPHPYQQGPPSYQKQGSHSVAYLPYTASSLSKGSMKKIEITVEPSQRPGTAINRSPSPISNQPSPRNQHSLYTATTPPSSSPSRGISSQPKPPFSVNPVYITYTQPTGPSCTPSPSPRVIPNPTTVFKITVGRATTENLLNLVDQEERSAAPEPIQPISVIPGSGGEKGSHKYQRSSSSGSDDYAYTQALLLHQRARMERLAKQLKLEKEELERLKSEVNGMEHDLMQRRLRRVSCTTAIPTPEEMTRLRSMNRQLQINVDCTLKEVDLLQSRGNFDPKAMNNFYDNIEPGPVVPPKPSKKDSSDPCTIERKARRISVTSKVQADIHDTQAAAADEHRTGSTQSPRTQPRDEDYEGAPWNCDSCTFLNHPALNRCEQCEMPRYT
partner: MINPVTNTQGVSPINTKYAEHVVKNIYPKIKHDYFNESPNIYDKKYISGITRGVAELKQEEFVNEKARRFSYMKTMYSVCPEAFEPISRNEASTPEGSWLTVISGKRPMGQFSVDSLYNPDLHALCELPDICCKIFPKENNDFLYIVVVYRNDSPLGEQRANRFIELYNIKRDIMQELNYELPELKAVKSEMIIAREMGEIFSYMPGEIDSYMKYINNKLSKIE
B2: TGF-beta-activated kinase 1 and MAP3K7-binding protein 2 (Homo sapiens), Q9NYJ8 (parent)
chain: MAQGSHQIDFQVLHDLRQKFPEVPEVVVSRCMLQNNNNLDACCAVLSQESTRYLYGEGDLNFSDDSGISGLRNHMTSLNLDLQSQNIYHHGREGSRMNGSRTLTHSISDGQLQGGQSNSELFQQEPQTAPAQVPQGFNVFGMSSSSGASNSAPHLGFHLGSKGTSSLSQQTPRFNPIMVTLAPNIQTGRNTPTSLHIHGVPPPVLNSPQGNSIYIRPYITTPGGTTRQTQQHSGWVSQFNPMNPQQVYQPSQPGPWTTCPASNPLSHTSSQQPNQQGHQTSHVYMPISSPTTSQPPTIHSSGSSQSSAHSQYNIQNISTGPRKNQIEIKLEPPQRNNSSKLRSSGPRTSSTSSSVNSQTLNRNQPTVYIAASPPNTDELMSRSQPKVYISANAATGDEQVMRNQPTLFISTNSGASAASRNMSGQVSMGPAFIHHHPPKSRAIGNNSATSPRVVVTQPNTKYTFKITVSPNKPPAVSPGVVSPTFELTNLLNHPDHYVETENIQHLTDPTLAHVDRISETRKLSMGSDDAAYTQALLVHQKARMERLQRELEIQKKKLDKLKSEVNEMENNLTRRRLKRSNSISQIPSLEEMQQLRSCNRQLQIDIDCLTKEIDLFQARGPHFNPSAIHNFYDNIGFVGPVPPKPKDQRSIIKTPKTQDTEDDEGAQWNCTACTFLNHPALIRCEQCEMPRHF
partner: B1 partner

Variants of: B1
Settings: with nlee_eco27 nleE

| Variant | effect of a mutation on the interaction |
| --- | --- |
| C703S | disrupting interaction |
| C689S | disrupting interaction |
| C706S | disrupting interaction |

Variants of: B2
Settings: with nlee_eco27 nleE

| Variant | effect of a mutation on the interaction |
| --- | --- |
| C684S | disrupting interaction |
| C670S | disrupting interaction |
| C687S | disrupting interaction |
